{
  "source": "paper PMC6662615",
  "about": "(Biochemistry, 2019)",
  "proteins": {"B1": {"name": "recombinant human αB-crystallin (natural protein, UniProt P02511 1-175, looked up)", "chain": "MDIAIHHPWIRRPFFPFHSPSRLFDQFFGEHLLESDLFPTSTSLSPFYLRPPSFLRAPSWFDTGLSEMRLEKDRFSVNLDVKHFSPEELKVKVLGDVIEVHGKHEERQDEHGFISREFHRKYRIPADVDPLTITSSLSSDGVLTVNGPRKQVSGPERTIPITREEKPAVTAAPKK"}},
  "target": "the molecule itself",
  "assay": "dynamic light scattering",
  "data": [
    {"protein": "B1", "values": [
      {"measurement": "binding result", "result": "binds"}
    ]}
  ]
}
